Assay results: PMC1260013 (BMC Biochemistry, 2005)

What was measured:
[1] = target: M. tb ICD-2 (Mycobacterium tuberculosis, UniProt O53611); experiment: biochemical
[2] = system: O=C(O)CC(C(=O)O)C(O)C(=O)O; experiment: purified protein; conditions: pH 7.5; 25.0 °C
[3] = system: NC(=O)c1ccc[n+]([C@@H]2O[C@H](COP(=O)(O)OP(=O)(O)OC[C@H]3O[C@@H](n4cnc5c(N)ncnc54)[C@H](OP(=O)(O)O)[C@@H]3O)[C@@H](O)[C@H]2O)c1; experiment: purified protein; conditions: pH 7.5; 25.0 °C; varied: cofactor

Sequence of M. tb ICD-2 (O53611 whole entry): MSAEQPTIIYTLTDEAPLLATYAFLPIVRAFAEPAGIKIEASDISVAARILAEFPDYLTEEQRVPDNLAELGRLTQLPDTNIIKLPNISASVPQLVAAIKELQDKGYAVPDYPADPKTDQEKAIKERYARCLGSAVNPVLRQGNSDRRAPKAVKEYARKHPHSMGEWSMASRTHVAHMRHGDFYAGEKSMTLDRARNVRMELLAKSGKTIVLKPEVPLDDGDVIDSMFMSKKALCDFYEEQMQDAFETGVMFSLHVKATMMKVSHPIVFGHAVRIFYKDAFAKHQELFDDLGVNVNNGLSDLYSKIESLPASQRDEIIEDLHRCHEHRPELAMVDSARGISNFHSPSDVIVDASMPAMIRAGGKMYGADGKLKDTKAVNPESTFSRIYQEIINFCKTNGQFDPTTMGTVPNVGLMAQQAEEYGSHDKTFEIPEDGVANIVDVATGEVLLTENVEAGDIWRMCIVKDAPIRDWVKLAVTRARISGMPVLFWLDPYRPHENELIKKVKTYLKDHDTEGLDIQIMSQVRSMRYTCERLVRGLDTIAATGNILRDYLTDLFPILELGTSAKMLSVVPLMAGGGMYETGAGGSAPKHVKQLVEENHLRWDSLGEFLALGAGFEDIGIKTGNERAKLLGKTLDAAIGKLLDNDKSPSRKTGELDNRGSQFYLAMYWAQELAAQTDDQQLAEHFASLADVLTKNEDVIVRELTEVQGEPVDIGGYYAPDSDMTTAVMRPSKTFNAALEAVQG

Molecule: NC(=O)C1=CN([C@@H]2O[C@H](COP(=O)(O)OP(=O)(O)OC[C@H]3O[C@@H](n4cnc5c(N)ncnc54)[C@H](OP(=O)(O)O)[C@@H]3O)[C@@H](O)[C@H]2O)C=CC1 [NADPH]
- Ki [1]: 4.6 µM

Molecule: M. tb ICD-1 (Mycobacterium tuberculosis H37Rv)
- Km [2]: 10 ± 5 µM
- Vmax [2]: 380 μM NADPH/min
- Km [3]: 125 ± 5 µM
- Vmax [3]: 400 μM NADPH/min
